In doi:10.1101/2023.03.10.531533 (bioRxiv, 2023):

Legend:
[1] = target: recombinant SARS-CoV-2 S-6P spike protein (SARS-CoV-2 Wuhan, UniProt P0DTC2, stabilised); experiment: ELISA
[2] = target: recombinant prefusion stabilized SARS-CoV-2 spike protein (S-2P) (SARS-CoV-2 Wuhan, UniProt P0DTC2, stabilised); experiment: HDX-MS
[3] = target: SARS-CoV-2 Wuhan spike protein on HEK293T cells (SARS-CoV-2 Wuhan, UniProt P0DTC2); experiment: flow cytometry on cells

Measured: binding result

B1: VHH R3DC23 (VHH)
VHH: QVQLQESGGGLVQAGDSLTLSCAVSGRIFSTYTMGWFRQAPGKEREFVAAVRWGAGTIYYADSMKGRFTISRDSAKNTVDLQMNSTKPEDTAVYYCGAAYVSKANYGSLWYQDSRRYDYWGQGTQVTVSS
binds: all assays above
